Test results from patent US20250257133A1 (ADAGENE PTE, published 2025).
Residue numbers refer to the chain shown, from its start. Numbers in names are those of the source.

B1: TY25238 (bispecific antibody)
chain 1: not shown
chain 2: not shown
chain 3: QAVVTQEPSLTVSPGGTVTLTCGSSTGAVTTSNYPNWVQQKPGQAPRGLIGGTNKRAPGVPARFSGSLLGGKAALTLSGAQPEDEAEYYCALWYSNLWVFGGGTKLTVLGGGGSGGGGSGGGGSGGGGSEVQLVESGGGLVQPGGSLRLSCAASGFTFNTYAINWVRQAPGKGLEWVGRIRSKYNNYATYYAESVKGRFTISRDDSKNTLYLQINSLRAEDTAVYYCVRHGNFGTSYVSWFAYWGQGTLVTVSSEPKSSDKTHTCPPCPAPELLGGPSVFLFPPKPKDTLMISRTPEVTCVVVDVSHEDPEVKFNWYVDGVEVHNAKTKPREEQYASTYRVVSVLTVLHQDWLNGKEYKCKVSNKALPAPIEKTISKAKGQPREPQVYTDPPSRDELTKNQVSLTCLVDGFYPSDIAVEWESNGQPENCYKTTPPVLDSDGSFFLYSKLTVDKSRWQQGNVFSCSVMHEALHNHYTQDSLSLSPGK
B2: TY24773 (antibody, human IgG4 S228P, kappa, V domains shown)
VH: EVQLVESGGGLVQPGGSLRLSCAASGYSISSGYHWGWIRQAPGKGLEWIGEIYHSGSTYYSPSLKSRVTISRDNSKNTLYLQLNSLRAEDTAVYYCARKDYYYALDYWGQGTLVTVSS
VL: DIQLTQSPSSLSASVGDRVTITCRASQSVDFYGKSFLHWYQQKPGKAPKLLIYAASTLQSGVPSRFSGSGSGTDFTLTISSLQPEDFATYYCQQSYRTPLTFGQGTKVEIKR
notes: hIgG4/S241P
B3: TY24853 (antibody, human IgG4 S228P, kappa, V domains shown)
VH: B2 VH with S30T, Y33H, G36S, Y101D, L105F
VL: B2 VL with Q27E, K34I, L100I
notes: hIgG4/S241P
B4: TY29815 (bispecific antibody, human IgG1, kappa, N297A)
light: DIQLTQSPSSLSASVGDRVTITCRASQSIPSFLNWYQQKPGKAPKLLIYAASSLQSGVPSRFSGSGSGTDFTLTISSLQPEDFATYYCQHYISWPRQFTFGQGTKVEIKRTVAAPSVFIFPPSDEQLKSGTASVVCLLNNFYPREAKVQWKVDNALQSGNSQESVTEQDSKDSTYSLSSTLTLSKADYEKHKVYACEVTHQGLSSPVTKSFNRGEC
heavy: EVQLVESGGGLVQPGGSLRLSCAASGYSISSGYYWGWIRQAPGKGLEWIGIIYPSGGGTNYAQKFQGRVTISRDNSKNTLYLQLNSLRAEDTAVYYCARGGGLGFDYWGQGTLVTVSSASTKGPSVFPLAPSSKSTSGGTAALGCLVKDYFPEPVTVSWNSGALTSGVHTFPAVLQSSGLYSLSSVVTVPSSSLGTQTYICNVNHKPSNTKVDKKVEPKSCDKTHTCPPCPAPELLGGPSVFLFPPKPKDTLMISRTPEVTCVVVDVSHEDPEVKFNWYVDGVEVHNAKTKPREEQYASTYRVVSVLTVLHQDWLNGKEYKCKVSNKALPAPIEKTISKAKGQPREPQVYTLPPSRKKLTKNQVKLTCLVKGFYPSDIAVEWESNGQPENNYKTTPPVLDCDGSFFLYSKLTVDKSRWQQGNVFSCSVMHEALHNHYTQKSLSLSPGK
chain: EVQLVESGGGLVQPGGSLRLSCAASGFSLSTGGVGVSWIRQAPGKGLEWIGEIYHSGSTYYSPSLKSRVTISRDNSKNTLYLQLNSLRAEDTAVYYCARYEYYYYDFDYWGQGTLVTVSSGGGGSGGGGSGGGGSGGGGSDIQLTQSPSSLSASVGDRVTITCRASQSVDFHGISFLHWYQQKPGKAPKLLIYAASSLQSGVPSRFSGSGSGTDFTLTISSLQPEDFATYYCQQSYRSPRTFGQGTKVEIKEPKSSDKTHTCPPCPAPELLGGPSVFLFPPKPKDTLMISRTPEVTCVVVDVSHEDPEVKFNWYVDGVEVHNAKTKPREEQYASTYRVVSVLTVLHQDWLNGKEYKCKVSNKALPAPIEKTISKAKGQPREPQVYTDPPSRDELTKNQVSLTCLVDGFYPSDIAVEWESNGQPENCYKTTPPVLDSDGSFFLYSKLTVDKSRWQQGNVFSCSVMHEALHNHYTQDSLSLSPGK
notes: also called TY29815 (WT); wild type anti-PD-L1xCD28 bsAb
B5: TY30413 (bispecific antibody, human IgG1, kappa, N297A)
light: B4 light
heavy: B4 heavy
chain: B4 chain with Y104H
notes: anti-PD-L1 Fab x CD28 scFv VH-VL (YYHY)-Fc

Legend:
HER2 on SK-OV-3 cells = biological target: T1, HER2 on SK-OV-3 cells (UniProt P04626 23-1255, limits assumed); experiment: flow cytometry on SK-OV-3 cells, APC anti-human IgG Fc secondary antibody, mean fluorescence intensity, 4-parameter fit; drawn table
T1 construct: whole, on cells; also called HER2 antigen

[1] = biological target: T2, His-tagged human CTLA4 protein (human, UniProt P16410 36-161, limits assumed); experiment: Octet BLI, mAb captured
T2 construct: not shown: His tag

[2] = biological target: T3, His-tagged human CD28 protein (human, UniProt P10747 19-152); experiment: Octet BLI, mAb captured;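 note: Anti-human Fc biosensors captured the antibodies, then His-tagged protein analytes at 100 nM associated for 300 s and dissociated for 300 s, fitted by a 1:1 Langmuir model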
T3 construct: not shown: His tag

Human CD28 on cells = biological target: T4, Human CD28 on cells (human, UniProt P10747 19-220); experiment: flow cytometry, Jurkat cells
T4 construct: Jurkat E6-1 cells, primary human T cells, or transfected HEK293F cells; also called CD28 on Jurkat cells; CD28 on human CD3+ T cells

[3] = biological target: Human CD28 (ELISAs of Examples 4 and 13) (human, UniProt P10747 19-152, limits assumed); experiment: ELISA

T2 sequence (P16410 36-161 limits assumed): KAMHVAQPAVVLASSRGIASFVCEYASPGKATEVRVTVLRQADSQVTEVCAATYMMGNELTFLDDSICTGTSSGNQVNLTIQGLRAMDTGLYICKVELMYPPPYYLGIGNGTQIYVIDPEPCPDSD

Row | Binder | EC50 (HER2 on SK-OV-3 cells) [nM] | binding result [1] | Kd [2] [nM] | koff [2] [s⁻¹] | kon [2] [M⁻¹ s⁻¹] | EC50 (Human CD28 on cells) [nM] | EC50 [3] [nM]
1 | B1 | 3.74 |  |  |  |  |  | 
2 | B2 |  | no binding (tested: 100 nM CTLA4) | 8.29 | 0.000319 | 38500 | 0.71 | 
3 | B3 |  | no binding (tested: 100 nM CTLA4) | 3.96 | 0.000164 | 41600 | 0.43 | 
4 | B4 |  |  |  |  |  |  | 22.3
5 | B5 |  |  |  |  |  |  | 26.8
